Substitutions are numbered along the chain they refer to.
B1: 3A7A (antibody, human IgG1, V domains shown)
VH: QVQLKESGPELVKPGTSVKISCKASGYNFRNYYIQWVKQRPGQGLEWIGWIFPGNNETNYNEKFKGKATLSADTSSTTAYMQLSSLTSEDSAVYFCARSWNYDARWGYWGQGTTVTVSS
VL: DVVMTQTPASLAVSLGQRATISCRASEIIDNYGISFIHWYQQKPGQPPKLLIYRASNLESGIPARFSGSGSRTDSTLTINPVGADDVATYYCQQSNEDPFTFGSGTKLELK
B2: 1A9 (antibody, human IgG1, V domains shown)
VH: EVKLQQSGPDLVKPGASVKISCKASGYSFTNFYIHWVKQRPGQGLEWIGWIFPGNGETNYSEKFKGKATLTADTSSSTAYMQFNSLTYEDSAVYFCARTWNYDARWGYWGQGTTLTVSS
VL: DVVMTQTPASLAVSLGQRATISCRASDGIDSYGISFMRWYQQKPGQPPTLLIYRASTLESGIPARFSGSGSRTNFTLTINPVEADDVATYYCQQTNEDPFTFGSGTKLEIK
B3: 1E4C (antibody, human IgG1, V domains shown)
VH: QRELQQSGPELVKPGASVNISCKASGYSFTNHYINWVKQRPGQGLEWIGWIFPGNGDTNYNEKFKGKATLTADTSSSTAYMQLSSLTSEDSAVYFCARTWNYDARWGYWGQGTTVTVSS
VL: B1 VL with S10F, I28S, N31S, I37M, L50V, A55T, S75F, G83E, L110I
B4: 2E2B (antibody, human IgG1, V domains shown)
VH: B1 VH with Q1D, K5V, T16A, N28S, R30T, I34M, N55G, N56G, T58S, S99T
VL: DIVLTQSPASLAVSLGQRATISCIPSESIDSYGISFMHWYQQKPGQPPKLLIYRASNLESGIPARFSGSGSRTDFTLTINPVEADDVATYYCQQSNEDPFTFGSGTKLEIK
B5: 2E2C (antibody, human IgG1, V domains shown)
VH: EFQLQQSGPELVKPGASVKISCKASGYSFTNYYMQWVKQRPGQGLEWIGWIFPGSGESNYNEKFKGKATLSADTSSTTAYMQLSSLTSEDSAVYFCARTWNYDARWGYWGQGTTLTVSS
VL: B4 VL with L4M
B6: 5D9 (antibody, human IgG1, V domains shown)
VH: QVQLKESGPELVKPGASVKISCKASGYSFTNYYIHWVKQRPGQGLEWIGWIFLGSGETNYNEKFKGEAILTADTSSTTAYMQLSSLTSEDSAVYFCARSWNYDARWGYWGQGTTLTVSS
VL: B4 VL with D1E, I24R, P25A, M37I, D85E
B7: 3E9B (antibody, human IgG1, V domains shown)
VH: B5 VH with F2V, Q6E, A24T, M34I, Q35H, S58T, L115V
VL: B4 VL with D1E, V3L, I24R, P25A, S28T
B8: 2D8 (antibody, human IgG1, V domains shown)
VH: EVQLQQSGPELVKPGASVKISCKSSGYSFTNFYIHWVKQRPGQGLDWIGWIFPGSGETNFNEKFKVKAALTADTSSNTAYMQLSSLTSEDSAVYFCARSWNYDARWGYWGQGTTVTVSS
VL: B4 VL with I2A, L4M, S7T, I24R, P25A, I29V, N57I, T73P, T76S
B9: 3E5 (antibody, human IgG1, V domains shown)
VH: B8 VH with E1D, Q6E, S55T, N77S, A79V, S85T, T114S, V115I
VL: B4 VL with D1E, I2N, I24R, P25A, Y32F, R72G, T73P, T76S, N80D, D98A
B10: 2E11 (antibody, human IgG1, V domains shown)
VH: B6 VH with A24T, L53P, E57D, E67K, I69T, T77N, Y80S, Q82H, S99T
VL: B4 VL with L4M, I24R, P25V, P44S, L50V, N57T
B11: 4H3 (antibody, human IgG1, V domains shown)
VH: B6 VH with A24T, S28I, L53P, E57D, E67K, I69T, T77S, Y80S, S99T, L115V
VL: B4 VL with V3L, I24R, P25V, P44S, L50V, N57T
B12: 4C11B (antibody, human IgG1, V domains shown)
VH: B6 VH with L53P, N61S, T77N
VL: B4 VL with D1Q, T5S, A9V, L15P, I24R, P25A, Q41K
B13: 4E3B (antibody, human IgG1, V domains shown)
VH: B5 VH with F2V, Q3H, M34I, S58T, K63N, K65R, G66A, L115V
VL: B4 VL with V3L, I24R, S28N, Y40C, A64V

These binders were tested against T1, anchored ILT2 D2 domain protein (human) (assay: flow cytometry, CHO cells with anchored ILT2 domain proteins).
T1 construct: on CHO cells; the entry includes leader remnant, V5 tag and CD24 GPI anchor signal
T1 sequence (chain, as listed by the source limits assumed): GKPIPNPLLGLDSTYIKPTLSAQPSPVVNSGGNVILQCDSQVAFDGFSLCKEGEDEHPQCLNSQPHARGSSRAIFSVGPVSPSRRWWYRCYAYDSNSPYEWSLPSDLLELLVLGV
B1: no binding.
B2: no binding.
B3: no binding.

Each binder was assayed against T2, anchored ILT2 D4 domain protein (human, UniProt Q8NHL6 322-650) in the same assay as above.
T2 construct: on CHO cells; the entry includes leader remnant, V5 tag, and the ILT2 transmembrane and cytoplasmic parts
T2 sequence (Q8NHL6 other isoform, or with tags, fused parts or gaps limits assumed): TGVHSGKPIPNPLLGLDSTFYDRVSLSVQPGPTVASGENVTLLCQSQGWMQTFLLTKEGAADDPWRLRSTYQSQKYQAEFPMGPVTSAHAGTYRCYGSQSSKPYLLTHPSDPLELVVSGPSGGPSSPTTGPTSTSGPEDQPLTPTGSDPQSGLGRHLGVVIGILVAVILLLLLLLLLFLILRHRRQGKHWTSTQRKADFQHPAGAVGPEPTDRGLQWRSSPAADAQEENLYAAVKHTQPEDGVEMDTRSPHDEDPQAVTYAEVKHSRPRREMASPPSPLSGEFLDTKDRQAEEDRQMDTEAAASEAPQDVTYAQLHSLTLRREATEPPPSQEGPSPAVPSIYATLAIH
B1: no binding.
B2: no binding.
B3: no binding.

Each binder was assayed against T3, human ILT6 (LILRA3) on CHO cells (human, UniProt Q8N6C8 24-434) (assay: flow cytometry, CHO transfectants).
T3 construct: also called CHO ILT6 cell line; human ILT-6 polypeptide
T3 sequence (Q8N6C8 other isoform, or with tags, fused parts or gaps): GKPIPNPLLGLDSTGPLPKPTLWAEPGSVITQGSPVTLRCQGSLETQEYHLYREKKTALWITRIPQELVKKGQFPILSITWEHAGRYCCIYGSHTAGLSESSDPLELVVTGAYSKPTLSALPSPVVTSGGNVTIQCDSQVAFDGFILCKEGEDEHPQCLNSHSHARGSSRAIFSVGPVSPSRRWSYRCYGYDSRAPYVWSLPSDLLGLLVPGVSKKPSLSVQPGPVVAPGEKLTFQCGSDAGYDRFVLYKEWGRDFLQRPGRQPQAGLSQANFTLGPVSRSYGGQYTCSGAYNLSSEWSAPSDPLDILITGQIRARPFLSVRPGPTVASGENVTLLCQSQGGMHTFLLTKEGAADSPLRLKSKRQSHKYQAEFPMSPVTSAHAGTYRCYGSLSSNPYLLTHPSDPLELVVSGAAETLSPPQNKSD
B4: no binding.
B5: no binding.
B6: no binding.
B7: no binding.
B8: no binding.
B9: no binding.
B10: no binding.
B11: no binding.
B12: no binding.
B13: no binding.

These binders were tested against T4, ILT2 mutant 2 (human, UniProt Q8NHL6 24-650) (assay: flow cytometry, ILT2 point mutants).
T4 construct: transfected in HEK293T cells; also called M2
T4 sequence (Q8NHL6 other isoform, or with tags, fused parts or gaps mutant): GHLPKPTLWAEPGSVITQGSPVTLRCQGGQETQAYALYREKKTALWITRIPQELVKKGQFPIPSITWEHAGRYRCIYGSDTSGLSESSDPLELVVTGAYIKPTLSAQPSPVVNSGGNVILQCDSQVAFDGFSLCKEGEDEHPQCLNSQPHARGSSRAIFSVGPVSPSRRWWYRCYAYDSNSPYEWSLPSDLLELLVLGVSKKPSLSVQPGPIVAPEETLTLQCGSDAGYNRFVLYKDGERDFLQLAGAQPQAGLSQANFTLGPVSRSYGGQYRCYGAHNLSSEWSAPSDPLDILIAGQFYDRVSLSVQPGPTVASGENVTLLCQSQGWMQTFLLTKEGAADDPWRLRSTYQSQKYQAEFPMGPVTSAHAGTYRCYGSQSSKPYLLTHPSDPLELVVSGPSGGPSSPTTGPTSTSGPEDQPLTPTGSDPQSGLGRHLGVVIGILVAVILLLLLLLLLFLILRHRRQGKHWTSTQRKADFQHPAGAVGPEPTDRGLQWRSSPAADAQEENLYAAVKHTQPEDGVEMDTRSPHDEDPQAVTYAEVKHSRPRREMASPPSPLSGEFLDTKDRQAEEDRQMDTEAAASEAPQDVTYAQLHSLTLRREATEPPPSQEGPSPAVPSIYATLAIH
B4: no binding.
B5: no binding.
B6: no binding.
B7: no binding.
B8: no binding.
B9: no binding.
B10: no binding.
B11: no binding.
B12: no binding.
B13: no binding.

Reference: patent publication US20220025056A1 (INNATE PHARMA, published 2022)
